From US8637016

Target: EphA3 antigen (Homo sapiens (Human)) (UniProt P29320)
Assay: ELISA on EphA3 antigen

Sequence of UniProt P29320 (P29320 21-541 limits assumed, form in doubt): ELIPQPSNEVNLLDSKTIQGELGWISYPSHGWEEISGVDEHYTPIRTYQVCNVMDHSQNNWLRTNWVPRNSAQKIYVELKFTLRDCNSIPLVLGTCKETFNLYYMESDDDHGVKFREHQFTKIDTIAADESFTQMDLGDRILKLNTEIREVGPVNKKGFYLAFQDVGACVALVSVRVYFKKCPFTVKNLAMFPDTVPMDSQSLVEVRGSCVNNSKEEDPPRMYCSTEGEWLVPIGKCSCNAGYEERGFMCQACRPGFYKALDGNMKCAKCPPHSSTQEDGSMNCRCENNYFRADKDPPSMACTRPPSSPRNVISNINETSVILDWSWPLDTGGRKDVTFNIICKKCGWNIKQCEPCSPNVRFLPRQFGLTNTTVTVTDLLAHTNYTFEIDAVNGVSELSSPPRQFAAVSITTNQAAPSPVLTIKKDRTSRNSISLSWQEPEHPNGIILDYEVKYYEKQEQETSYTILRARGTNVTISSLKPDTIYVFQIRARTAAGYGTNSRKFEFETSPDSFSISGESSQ

monoclonal antibody IIIA4 showed an AFFINITY of 2.5 nM.
